Test results reported in US20260201043A1 (INSTITUT NATIONAL DE LA RECHERCHE SCIENTIFIQUE, published 2026).

What was measured:
[1] = target: T1, recombinant human galectin-13 (human, UniProt Q9UHV8 1-139, biotinylated for the phage ELISA; labeled with FITC for the HepG2 cell binding assay); assay: cell-based or functional assay
T1 sequence (looked up): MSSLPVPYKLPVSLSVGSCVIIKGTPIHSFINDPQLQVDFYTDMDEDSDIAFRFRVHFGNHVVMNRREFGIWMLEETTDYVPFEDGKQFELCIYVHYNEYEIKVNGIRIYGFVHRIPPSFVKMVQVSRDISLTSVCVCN

[2] = target: T1, recombinant human galectin-13; assay: non-adsorbed phage ELISA on biotinylated GAL-13
[3] = target: T2, recombinant N-terminal domain of human GAL-9 (human, UniProt O00182 1-148); assay: ELISA: sdAb immobilized at 1 µM, 5 µM GAL-9N
T2 construct: also called GAL-9N; Gal-9N
Procedure: (§1) FIGS. 19A-B show the binding of recombinant N-terminal domain of human GAL-9 (GAL-9N, FIG. 19A) and recombinant C-terminal domain of human GAL-9 (GAL-9C, FIG. 19B) to GAL-9-specific sdAbs as measured by ELISA. Briefly, sdAbs were immobilized at 1 μM for 1 h at RT, followed by blocking with PBS containing 10% (v/v) BSA and 0.05% (v/v) Tween™ 20. 5 μM of recombinant GAL-9N or GAL-9C were incubated for 1 h at RT. […] The colorimetric assay was carried out with 3,3′,5,5′-tetramethylbenzidine per the manufacturer's recommendations. Data (mean values±SD) from three independent experiments is shown. Statistical differences were assessed using Tukey's multiple comparisons test. RT=room temperature.

[4] = target: T1, recombinant human galectin-13; assay: ELISA: sdAb immobilized at 1 µM, 5 µM galectin
Procedure: Briefly, Nbs were immobilized at 1 μM for 1 h at RT, followed by blocking with PBS containing 10% (v/v) BSA and 0.05% (v/v) Tween™ 20. 5 μM of galectin were incubated for 1 h at RT. […] The colorimetric assay was carried out with 3,3′,5,5′-tetramethylbenzidine per the manufacturer's recommendations. Data (mean values±SD) from one experiment is shown. Statistical differences were assessed using Dunnett's multiple comparisons test. RT=room temperature

[5] = target: T3, recombinant C-terminal domain of human GAL-9 (human, UniProt O00182 210-355); assay: ELISA: sdAb immobilized at 1 µM, 5 µM GAL-9C
T3 construct: also called GAL-9C; GAL-9C (210-355)
Procedure: as §1

T2 sequence (O00182 1-148 limits assumed): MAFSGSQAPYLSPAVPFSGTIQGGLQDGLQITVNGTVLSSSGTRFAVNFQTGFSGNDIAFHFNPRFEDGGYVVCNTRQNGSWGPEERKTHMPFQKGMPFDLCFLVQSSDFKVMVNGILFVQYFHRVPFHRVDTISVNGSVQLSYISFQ
T3 sequence (O00182 210-355 limits assumed): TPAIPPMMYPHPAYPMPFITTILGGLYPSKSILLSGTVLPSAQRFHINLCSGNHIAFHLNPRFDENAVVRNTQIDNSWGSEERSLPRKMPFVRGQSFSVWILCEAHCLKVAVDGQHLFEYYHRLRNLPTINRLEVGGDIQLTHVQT

B1: G13N5 (VHH, not shown: small tags and cut ends)
VHH: EVQLQASGGGFVQPGGSLRLSCAASGYTSNEDSMGWFRQAPGKEREFVSAISRGPSFRTYYADSVKGRFTISRDNSKNTVYLQMNSLRAEDTATYYCAIRLGRLYRYGDLTPKSAYYWGQGTQVTVSS
In the case of B1, the “inhibition of galectin-13-induced apoptosis of Jurkat T cells” value (“inhibition” below) [1] is reported as -44%.

B2: G13N10 (VHH)
VHH: EVQLQASGGGFVQPGGSLRLSCAASGRTSNQTIGWFRQAPGKEREFVSAISARFDEYGYYADSVKGRFTISRDNSKNTVYLQMNSLRAEDTATYYCALGWPQKSTWRAYTAEYWGQGTQVTVSS
notes: Synthetic humanized sdAb; on M13 phage in the screening ELISA, purified with His and cMyc tags otherwise; also called Nb #10; GAL-13 sdAb G13N10; not shown: 6xHis and cMyc tags from vector pHEN2
B2: binds [2].

B3: G13N9 (VHH, not shown: small tags and cut ends)
VHH: EVQLQASGGGFVQPGGSLRLSCAASGRGSALTTMGWFRQAPGKEREFVSAISGDTGLYVYYADSVKGRFTISRDNSKNTVYLQMNSLRAEDTATYYCAGKWLGGRQADTRYWGQGTQVTVSS
B3 was tested, and the “inhibition” value [1] was -33%.

B4: G13N6 (VHH, not shown: small tags and cut ends)
VHH: EVQLQASGGGFVQPGGSLRLSCAASGRTSSLTSMGWFRQAPGKEREFVSAISFSGSMFTYYADSVKGRFTISRDNSKNTVYLQMNSLRAEDTATYYCADKWMHKPANYWGQGTQVTVSS
With B4 the “inhibition” value [1] was -27%.

B5: G13N4 (VHH, not shown: small tags and cut ends)
VHH: EVQLQASGGGFVQPGGSLRLSCAASGSSYAGSAMGWFRQAPGKEREFVSAISSDPDTKAYYADSVKGRFTISRDNSKNTVYLQMNSLRAEDTATYYCAISGQYPYARYWGHGTQVTVSS
For B5, the “inhibition” value [1] was -31%.

B6: G13N1 (VHH, not shown: small tags and cut ends)
VHH: EVQLQASGGGFVQPGGSLRLSCAASGFGSNRSTMGWFRQAPGKEREFVSAISSLSSDPPYYADSVKGRFTISRDNSKNTVYLQMNSLRAEDTATYYCAPAGMRGVMEYWGQGTQVTVSS
With B6 the “inhibition” value [1] was -27%.

B7: G9N1 (VHH)
VHH: EVQLQASGGGFVQPGGSLRLSCAASGDTSGEYSMGWFRQAPGKEREFVSAISDQGGIEIYYADSVKGRFTISRDNSKNTVYLQMNSLRAEDTATYYCAHTFYDMPDGYRQYWGQGTQVTVSS
notes: Synthetic humanized sdAb; on M13 phage in the screening ELISA, purified with His and cMyc tags and immobilized in wells otherwise; also called GAL-9-specific sdAb G9N1; not shown: 6xHis and cMyc tags from vector pHEN2
B7: binds [3]; binds [4].

B8: G9N3 (VHH)
VHH: EVQLQASGGGFVQPGGSLRLSCAASGDGSGWDIMGWFRQAPGKEREFVSAISRHDTTYSYYADSVKGRFTISRDNSKNTVYLQMNSLRAEDTATYYCATIPASWNKSYWGQGTQVTVSS
notes: Synthetic humanized sdAb; on M13 phage in the screening ELISA, purified with His and cMyc tags and immobilized in wells otherwise; also called GAL-9-specific sdAb G9N3; not shown: 6xHis and cMyc tags from vector pHEN2
B8: binds [5]; binds [3]; binds [4].

B9: G13N2 (VHH)
VHH: EVQLQASGGGFVQPGGSLRLSCAASGSTSRSSGMGWFRQAPGKEREFVSAISYRGSGARYYADSVKGRFTISRDNSKNTVYLQMNSLRAEDTATYYCAMWQRQIQPGTRPVWKYWGQGTQVTVSS
notes: Synthetic humanized sdAb; on M13 phage in the screening ELISA, purified with His and cMyc tags otherwise; also called GAL-13 sdAb G13N2; not shown: 6xHis and cMyc tags from vector pHEN2
B9: binds [2].

B10: G13N3 (VHH, not shown: small tags and cut ends)
VHH: EVQLQASGGGFVQPGGSLRLSCAASGRGSRWYGMGWFRQAPGKEREFVSAISAQHSTRAYYADSVKGRFTISRDNSKNTVYLQMNSLRAEDTATYYCAGYMSKMGERKWKYWGQGTQVTVSS
With B10 the “inhibition” value [1] was -23.5%.

B11: G13N8 (VHH)
VHH: EVQLQASGGGFVQPGGSLRLSCAASGTTWQETKMGWFRQAPGKEREFVSAISRGPNYYPYYADSVKGRFTISRDNSKNTVYLQMNSLRAEDTATYYCADEWMGSINARGHSGYYWGQGTQVTVSS
notes: Synthetic humanized sdAb; on M13 phage in the screening ELISA, purified with His and cMyc tags otherwise; also called GAL-13 sdAb G13N8; not shown: 6xHis and cMyc tags from vector pHEN2
B11: binds [2].

B12: G9N4 (VHH)
VHH: EVQLQASGGGFVQPGGSLRLSCAASGGTWRWTIMGWFRQAPGKEREFVSAISRTNSEYQYYADSVKGRFTISRDNSKNTVYLQMNSLRAEDTATYYCAEPTAVWADKGQEMQSYWGQGTQVTVSS
notes: Synthetic humanized sdAb; on M13 phage in the screening ELISA, purified with His and cMyc tags and immobilized in wells otherwise; also called GAL-9-specific sdAb G9N4; not shown: 6xHis and cMyc tags from vector pHEN2
B12: binds [5]; binds [3].
